Measurements as given in US20030166163A1.

Tests used:
[1] = target: human intermediate affinity IL-2Rβγ on TF-1β cells (human) (UniProt P14784); assay: cell-based or functional assay
[2] = target: FcγR receptors on U937 cells; assay: cell-based ELISA on U937 cells, detection with FITC-conjugated anti-human IgG Fc F(ab')2
[3] = target: murine high affinity IL-2Rαβγ on CTLL-2 cells (murine) (UniProt P01590); assay: cell-based or functional assay
[4] = target: human IL-2Rαβγ on Kit-225 cells (human) (UniProt P01589); assay: cell-based or functional assay
Chain of UniProt P01589 (P01589 22-272, chain 1 of 3): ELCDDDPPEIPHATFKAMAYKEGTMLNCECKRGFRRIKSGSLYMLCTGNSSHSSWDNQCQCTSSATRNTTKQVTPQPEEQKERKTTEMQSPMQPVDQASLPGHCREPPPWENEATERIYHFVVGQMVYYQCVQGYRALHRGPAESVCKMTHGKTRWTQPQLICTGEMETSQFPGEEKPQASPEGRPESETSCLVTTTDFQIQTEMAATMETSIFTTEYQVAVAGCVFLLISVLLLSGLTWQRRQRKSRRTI
Chain of UniProt P01589 (P14784 27-551, chain 2 of 3, further chain): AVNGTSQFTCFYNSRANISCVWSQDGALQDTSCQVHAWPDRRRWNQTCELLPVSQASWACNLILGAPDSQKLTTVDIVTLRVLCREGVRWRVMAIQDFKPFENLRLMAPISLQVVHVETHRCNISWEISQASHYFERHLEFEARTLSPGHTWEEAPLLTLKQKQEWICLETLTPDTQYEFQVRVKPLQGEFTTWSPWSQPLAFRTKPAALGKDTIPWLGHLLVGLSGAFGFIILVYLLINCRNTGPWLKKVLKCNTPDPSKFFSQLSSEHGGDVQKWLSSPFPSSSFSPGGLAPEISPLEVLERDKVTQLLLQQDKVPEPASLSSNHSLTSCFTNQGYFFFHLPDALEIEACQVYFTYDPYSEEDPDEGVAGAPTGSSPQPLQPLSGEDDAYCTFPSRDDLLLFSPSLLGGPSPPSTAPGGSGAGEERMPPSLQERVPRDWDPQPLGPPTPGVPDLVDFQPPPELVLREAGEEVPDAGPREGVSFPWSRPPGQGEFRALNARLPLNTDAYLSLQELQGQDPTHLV
Chain of UniProt P01589 (P31785 23-369, chain 3 of 3, further chain): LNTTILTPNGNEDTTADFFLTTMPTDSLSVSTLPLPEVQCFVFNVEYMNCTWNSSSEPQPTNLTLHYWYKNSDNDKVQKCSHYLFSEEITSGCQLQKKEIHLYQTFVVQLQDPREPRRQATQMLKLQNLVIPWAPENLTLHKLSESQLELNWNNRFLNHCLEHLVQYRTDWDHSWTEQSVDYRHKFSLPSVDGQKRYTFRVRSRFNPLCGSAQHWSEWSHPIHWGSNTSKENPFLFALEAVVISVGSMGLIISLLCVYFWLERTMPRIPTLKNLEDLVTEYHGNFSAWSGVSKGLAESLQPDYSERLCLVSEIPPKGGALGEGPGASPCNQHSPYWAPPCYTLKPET

Chain of UniProt P14784 (P14784 27-551, chain 1 of 2): as the sequence (P14784 27-551, chain 2 of 3, further chain) above
Chain of UniProt P14784 (P31785 23-369, chain 2 of 2, further chain): as the sequence (P31785 23-369, chain 3 of 3, further chain) above
Chain of UniProt P01590 (P01590 22-268, chain 1 of 3): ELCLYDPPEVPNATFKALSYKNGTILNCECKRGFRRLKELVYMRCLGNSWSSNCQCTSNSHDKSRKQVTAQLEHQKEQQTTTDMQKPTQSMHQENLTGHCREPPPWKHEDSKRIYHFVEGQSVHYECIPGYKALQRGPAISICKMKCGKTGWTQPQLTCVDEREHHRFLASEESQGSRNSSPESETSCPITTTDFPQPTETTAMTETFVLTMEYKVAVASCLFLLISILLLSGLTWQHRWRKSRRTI
Chain of UniProt P01590 (P16297 27-539, chain 2 of 3, further chain): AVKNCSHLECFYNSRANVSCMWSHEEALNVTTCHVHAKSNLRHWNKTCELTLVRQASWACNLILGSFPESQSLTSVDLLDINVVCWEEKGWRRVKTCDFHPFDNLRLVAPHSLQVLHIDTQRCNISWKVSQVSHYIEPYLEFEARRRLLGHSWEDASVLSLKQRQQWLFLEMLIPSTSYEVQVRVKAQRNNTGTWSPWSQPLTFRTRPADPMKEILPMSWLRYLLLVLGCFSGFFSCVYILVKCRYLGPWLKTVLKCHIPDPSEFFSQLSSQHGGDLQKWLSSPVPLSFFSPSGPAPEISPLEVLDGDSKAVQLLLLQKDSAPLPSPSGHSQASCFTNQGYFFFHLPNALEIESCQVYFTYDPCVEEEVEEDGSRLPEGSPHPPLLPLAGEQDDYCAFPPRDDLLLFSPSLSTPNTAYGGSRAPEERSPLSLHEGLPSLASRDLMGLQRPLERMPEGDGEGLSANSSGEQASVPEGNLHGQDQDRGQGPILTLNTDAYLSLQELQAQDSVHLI
Chain of UniProt P01590 (P34902 23-369, chain 3 of 3, further chain): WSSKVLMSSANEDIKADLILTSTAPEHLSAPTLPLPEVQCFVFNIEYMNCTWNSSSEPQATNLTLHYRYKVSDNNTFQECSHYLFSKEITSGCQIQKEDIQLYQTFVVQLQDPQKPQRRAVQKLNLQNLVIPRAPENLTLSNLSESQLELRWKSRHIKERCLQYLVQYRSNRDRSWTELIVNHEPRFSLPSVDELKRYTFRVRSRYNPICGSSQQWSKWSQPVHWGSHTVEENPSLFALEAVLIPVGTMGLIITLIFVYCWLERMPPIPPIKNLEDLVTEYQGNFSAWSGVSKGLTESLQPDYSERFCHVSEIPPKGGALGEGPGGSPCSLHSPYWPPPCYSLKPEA

| Substance | ED50 Ratio = ED50 [TF1-β]/ED50 [CTLL-2], cell proliferation [1] | ED50 Ratio TF-1β/Kit-225, cell proliferation [1] | ED50, proliferation of CTLL-2 cells [3] | other results |
| --- | --- | --- | --- | --- |
| huKS-IL2 | 0.11 | 4 |  | fold change of the ED50 ratio (TF-1β/CTLL-2) against free IL-2 [1]: 5 fold |
| huKS-ala-IL2 | 0.17 | 10.4 | 5 | EC50 [2]: 5 µg/mL; ED50, proliferation of Kit-225 cells [4]: 0.08 |
| huKS-ala-IL2(N88R) | 2300 | 52000 | 3 | ED50, proliferation of Kit 225 cells [4]: 0.13; shift in selectivity (ED50 ratio TF-1β/CTLL-2) relative to KS-ala-IL2 [1]: 20000 fold |

Second part, led by results:

| ED50 Ratio = ED50 [TF1-β]/ED50 [CTLL-2], cell proliferation [1] | ED50 Ratio TF-1β/Kit-225, cell proliferation [1] | ED50, proliferation of CTLL-2 cells [3] | Substance | other results |
| --- | --- | --- | --- | --- |
| 0.07 |  |  | 14.18-IL2 |  |
| 0.21 |  |  | N-Glycanase treated 14.18-IL2 | fold increase of the ED50 ratio (TF-1β/CTLL-2) compared to untreated 14.18-IL2 [1]: 3 fold |
| 0.45 |  |  | N-Glycanase treated huKS-IL2 | fold increase of the ED50 Ratio (TF-1β/CTLL-2) relative to huKS-IL2 [1]: 2 fold |
